T1: human KLRB1 expressed on CHO-hum-KLRB1 cells (human, UniProt Q12918 1-225)
T1 sequence: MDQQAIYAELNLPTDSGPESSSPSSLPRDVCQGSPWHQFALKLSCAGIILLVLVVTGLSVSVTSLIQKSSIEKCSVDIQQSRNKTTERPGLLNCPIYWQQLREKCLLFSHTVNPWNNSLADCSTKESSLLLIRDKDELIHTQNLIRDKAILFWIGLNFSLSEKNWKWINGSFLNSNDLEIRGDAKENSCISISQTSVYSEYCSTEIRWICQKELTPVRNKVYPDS

T2: human KLRB1 extracellular domain (ECD), amino acids 67-225 of human KLRB1 protein (human, UniProt Q12918 67-225)
T2 construct: Soluble analyte in SPR; also called KLRB1 ECD; CD161 ECD
T2 sequence: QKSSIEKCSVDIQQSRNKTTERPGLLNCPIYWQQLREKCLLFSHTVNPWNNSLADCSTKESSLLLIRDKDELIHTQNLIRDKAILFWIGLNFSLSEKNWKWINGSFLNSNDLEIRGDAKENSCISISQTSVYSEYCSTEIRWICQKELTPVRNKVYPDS

B1: 10A3D6hum2.2 (antibody, human IgG1, V domains shown)
VH: QVQLVQSGAEVKKPGASVKVSCKASGYSFTGYTMNWVRQAPGQNLEWIGLINPNTGGTYYNQKFKDRVTLTVDTSISTAYMELSRLRSDDTAVYYCARLGDNYRGYFDSWGQGTTVTVSS
VL: DIQLTQSPSFLSASVGDRVTITCKASQDVGTAVVWYQQKPGKAPKLLIDWASIRHTGVPSRFSGSGSGTEFTLTISSLQPEDFADYFCQQYSTYLYTFGGGTKLEIK
notes: tested as human IgG1-kappa produced in CHO cells
B2: antibody 13.2 (antibody, human IgG1, kappa, V domains shown)
VH: B1 VH with S28T, N44G, I48M, N54S, L70M, V72R, S109Y
VL: EIVMTQSPATLSVSPGERATLSCRASQDVGTAVVWYQQKPGQAPRLLIDWASIRHTGIPARFSGSGSGTEFTLTISSLQSEDFAVYYCQQYSTYLYTFGGGTKVEIKR
notes: Human IgG1-kappa produced in CHO cells
B3: antibody 12.0 (antibody, human IgG1, kappa, V domains shown)
VH: B1 VH with S28T, N44G, I48M, N54S, L70M, V72R, S109Y
VL: DIQLTQSPSFLSASVGDRVTITCRASQDVGTAVVWYQQKPGKAPKLLIDWASIRHTGVPSRFSGSGSGTEFTLTISSLQPEDFATYYCQQYSTYLYTFGGGTKLEIKR
notes: as for B2
B4: 10A3D6hum1.2 (antibody, human IgG1, V domains shown)
VH: B1 VH with N44G, I48M, L70M, V72R
VL: B1 VL
notes: as for B1
B5: antibody 11.45 (antibody, human IgG1, kappa, V domains shown)
VH: B1 VH with S28T, N44G, I48M, N54S, T55S, L70M, V72R, S109Y
VL: B3 VL with R24K
notes: as for B2
B6: antibody 11.12 (antibody, human IgG1, kappa, V domains shown)
VH: B1 VH with N44G, I48M, L70M, V72R, S109Y
VL: B3 VL with R24K, T85D, Y87F
notes: as for B2
B7: antibody 11.54 (antibody, human IgG1, kappa, V domains shown)
VH: B1 VH with N44G, I48M, N54S, T55S, L70M, V72R, S109Y
VL: B3 VL with R24K, T31S, T56S
notes: as for B2
B8: antibody 11.27 (antibody, human IgG1, kappa, V domains shown)
VH: B1 VH with N44G, I48M, N54S, L70M, V72R
VL: B3 VL with R24K, T85D, Y87F
notes: as for B2
B9: antibody 11.55 (antibody, human IgG1, kappa, V domains shown)
VH: B1 VH with N44G, I48M, N54S, T55S, L70M, V72R, S109Y
VL: B3 VL
notes: as for B2
B10: antibody 11.44.1 (antibody, human IgG1, kappa, V domains shown)
VH: B1 VH with N44G, I48M, N54S, T55S, L70M, V72R, S109V
VL: B3 VL with R24K
notes: as for B2
B11: 10A3D6hum8.2 (antibody, human IgG1, V domains shown)
VH: B1 VH with N54A, S109V
VL: B1 VL
notes: as for B1
B12: antibody 11.29 (antibody, human IgG1, kappa, V domains shown)
VH: B1 VH with N44G, I48M, N54S, T55S, L70M, V72R
VL: B3 VL with R24K, T85D, Y87F
notes: as for B2
B13: antibody 11.41.1 (antibody, human IgG1, kappa, V domains shown)
VH: B1 VH with N44G, I48M, N54S, L70M, V72R, S109V
VL: B3 VL with R24K
notes: as for B2
B14: antibody 11.57 (antibody, human IgG1, kappa, V domains shown)
VH: B1 VH with S28T, N44G, I48M, N54S, T55S, L70M, V72R, S109Y
VL: B3 VL with T31S, T56S
notes: as for B2
B15: antibody 13.4 (antibody, human IgG1, kappa, V domains shown)
VH: B1 VH with S28T, N44G, I48M, N54S, L70M, V72R, S109Y
VL: B2 VL with Y94W, L95P, Y96L
notes: as for B2
B16: antibody 13.5 (antibody, human IgG1, kappa, V domains shown)
VH: B1 VH with S28T, N44G, I48M, N54S, L70M, V72R, S109Y
VL: B2 VL with D28S, Y94W, L95P, Y96L
notes: as for B2
B17: antibody 12.3 (antibody, human IgG1, kappa, V domains shown)
VH: B1 VH with S28T, N44G, I48M, N54S, L70M, V72R, S109Y
VL: B3 VL with D28G, V29I, G30S, T31S, A32Y, V33L, V34A, D49Y, Y91L, L95P
notes: as for B2
B18: antibody 12.1.3 (antibody, human IgG1, kappa, V domains shown)
VH: B1 VH with S28T, N44G, I48M, N54S, L70M, V72R, S109Y
VL: B3 VL with D28G, V29I, T31S
notes: as for B2
B19: antibody 13.6 (antibody, human IgG1, kappa, V domains shown)
VH: B1 VH with S28T, N44G, I48M, N54S, L70M, V72R, S109Y
VL: B2 VL with D28S, A32N, V33L, V34A, Y94W, L95P, Y96L
notes: as for B2
B20: antibody 12.2 (antibody, human IgG1, kappa, V domains shown)
VH: B1 VH with S28T, N44G, I48M, N54S, L70M, V72R, S109Y
VL: B3 VL with D28G, V29I, G30S, T31S, A32Y, V33L, V34A
notes: as for B2

Changes are numbered by the printed parent chain.

One experiment deals with T1, human KLRB1 expressed on CHO-hum-KLRB1 …. In words: cell-based or functional assay.
In the case of B1, the “EC50 for ADCC (target cell lysis, LDH release)” value (“EC50 for ADCC” for short) is 0.0048 nM.

Regarding B2, the “EC50 for ADCC” value came to 0.0083 nM.

B3: the “EC50 for ADCC” value is 0.0054 nM.

As to B4, the “EC50 for ADCC” value was determined as 0.0058 nM.

The next experiment has as its target T2, human KLRB1 extracellular domain (ECD), …. In words: SPR (Biacore 8K), antibody fixed on chip, human KLRB1 ECD as analyte. On the procedure:
(§1) Various humanized antibodies derived from humanized variants of antibody 10A3D6 with human IgG1-kappa were produced in CHO cells and then assayed for binding against human KLRB1 extracellular domain (ECD) via surface plasma resonance (SPR). Human KLRB1 extracellular domain was amino acids 67-225 from human KLRB1 protein (SEQ ID NO: 1). […] Antibody was fixed to the chip and analyte of human KLRB1 extracellular domain (ECD) was flowed over the surface at 30 ul/min, with contact time 120 seconds and dissociation time 360 seconds. The results are shown from two separate experiments in Tables 20 and 21.
In general terms: SPR reads the build-up and loss of mass on a sensor chip optically.
In general, Kd refers to the equilibrium constant for the complex coming apart. By koff is commonly meant the first-order rate constant of dissociation. What is called kon is a measure of how fast the partners come together. The low end stands for slow association, the high end for fast association. In turn, B5 registered an equilibrium dissociation constant (Kd) of 1.26 nM, a koff of 0.000227 s⁻¹ and an association rate constant (kon) of 181000 M⁻¹ s⁻¹.

In turn, B1 registered a Kd of 0.263 nM, a koff of 8.18e-05 s⁻¹ and a kon of 311000 M⁻¹ s⁻¹.

In the case of B6, the equilibrium dissociation constant (Kd) was determined as 0.275 nM, the koff is 0.00012 s⁻¹ and the on-rate constant (kon) is 434000 M⁻¹ s⁻¹.

On to B7, for which the dissociation constant Kd was 2.24 nM, the dissociation rate constant (koff) was 0.000315 s⁻¹ and the kon stood at 141000 M⁻¹ s⁻¹.

With B8, the dissociation constant Kd stood at 0.314 nM, the koff was 0.000123 s⁻¹ and the kon came to 391000 M⁻¹ s⁻¹.

For the molecule B9, binding was put at a Kd of 1.23 nM, the off-rate (koff) turned out to be 0.00022 s⁻¹ and the kon turned out to be 180000 M⁻¹ s⁻¹.

B10 registered a Kd of 1.09 nM, an off-rate (koff) of 0.000234 s⁻¹ and a kon of 215000 M⁻¹ s⁻¹.

In turn, B11 yielded a dissociation constant Kd of 0.512 nM, a dissociation rate constant (koff) of 0.000171 s⁻¹ and an on-rate constant (kon) of 335000 M⁻¹ s⁻¹.

The molecule B12 returned a dissociation constant (Kd) of 0.743 nM, a koff of 0.000207 s⁻¹ and a kon of 278000 M⁻¹ s⁻¹.

Regarding B13, the affinity, expressed as Kd, was 0.414 nM; the koff came to 0.000167 s⁻¹; the kon came out at 403000 M⁻¹ s⁻¹.

With B14, binding was put at a Kd of 2.08 nM, the dissociation rate constant (koff) was determined as 0.000308 s⁻¹ and the kon is 148000 M⁻¹ s⁻¹.

Consider B4, for which the Kd stood at 0.279 nM, the dissociation rate constant (koff) worked out at 0.000135 s⁻¹ and the kon was determined as 485000 M⁻¹ s⁻¹.

For a further experiment the target is unchanged. In words: SPR (Biacore 8K), antibody fixed on chip, human KLRB1 ECD as analyte; second experiment. On the procedure: as §1
Molecule B15 had a Kd of 14.6 nM, a koff of 0.00217 s⁻¹ and a kon of 149000 M⁻¹ s⁻¹.

For B16, the dissociation constant (Kd) is 20.3 nM, the off-rate constant (koff) came to 0.00177 s⁻¹ and the kon came to 87300 M⁻¹ s⁻¹.

In the case of B2, the dissociation constant (Kd) came out at 0.444 nM, the dissociation rate constant (koff) stood at 0.000133 s⁻¹ and the on-rate constant (kon) is 300000 M⁻¹ s⁻¹.

On to B3, for which binding was put at a Kd of 0.597 nM, the off-rate (koff) came to 0.000145 s⁻¹ and the kon is 243000 M⁻¹ s⁻¹.

For B17, binding was characterised by a dissociation constant (Kd) of 68.8 nM, the dissociation rate constant (koff) came to 0.00135 s⁻¹ and the on-rate constant (kon) is 19700 M⁻¹ s⁻¹.

Take B18: binding was put at a Kd of 1.75 nM, the koff was 0.000248 s⁻¹ and the on-rate constant (kon) amounted to 141000 M⁻¹ s⁻¹.

Molecule B14 returned a Kd of 2.52 nM, an off-rate constant (koff) of 0.000308 s⁻¹ and an on-rate (kon) of 122000 M⁻¹ s⁻¹.

B4: the affinity, expressed as Kd, was 0.344 nM; the off-rate (koff) came out at 0.000107 s⁻¹; the kon is 310000 M⁻¹ s⁻¹.

In turn, B19 displayed a Kd of 44.8 nM, a koff of 0.00269 s⁻¹ and a kon of 60000 M⁻¹ s⁻¹.

Consider B20, for which the Kd was 1.54 nM, the off-rate (koff) stood at 0.000236 s⁻¹ and the kon was 153000 M⁻¹ s⁻¹.

A further experiment has as its target T1, human KLRB1 expressed on CHO-hum-KLRB1 …. In words: cell-based or functional assay. This is another data set of the same source.
With B1, the “Span (fitted span of the ADCC dose-response curve, % target cell lysis of CHO-K1/human KLRB1 cells with PBMCs, E:T=25:1)” value is 74.2 % Target Cell Lysis (axis; the table prints no unit).

With B2, the “Span (fitted span of the ADCC dose-response curve, % target cell lysis of CHO-K1/human KLRB1 cells with PBMCs, E:T=25:1)” value is 77.8 % Target Cell Lysis (axis; the table prints no unit).

With B3, the “Span (fitted span of the ADCC dose-response curve, % target cell lysis of CHO-K1/human KLRB1 cells with PBMCs, E:T=25:1)” value was 80.8 % Target Cell Lysis (axis; the table prints no unit).

As to B4, the “Span (fitted span of the ADCC dose-response curve, % target cell lysis of CHO-K1/human KLRB1 cells with PBMCs, E:T=25:1)” value was 75 % Target Cell Lysis (axis; the table prints no unit).
